Here are results for two molecules from PMC9604462, “SAXS Examinations of the Redox-Dependent Formation of a DNA-SOD1 Complex”.

Data set [1] has as its target human Cu/Zn superoxide dismutase SOD1, RED-NHS labeled (human, UniProt P00441 1-154). In words: MST; 500 nM SOD1; DNA two-fold dilutions from 20 uM; FRET: 20 mM Tris-HCl pH 7.4, 37 C, 2 h; MST: 10 mM PBS pH 7.4, 0.05% Tween, room temperature, 5 min; SAXS: 100 uM bovine SOD1 and dsDNA, buffer not given in material. The note with it: protein: recombinant; tags: N-terminal His tag; RED-NHS dye; chain copies: 2; blunt.

Data set [2] concerns the target bovine SOD1, rhodamine B labeled (bovine, UniProt P00442 2-152). In words: FRET; 20 mM Tris-HCl pH 7.4; 100 uM DNA, 200 uM SOD1; fitted from kinetic curve; FRET: 20 mM Tris-HCl pH 7.4, 37 C, 2 h; MST: 10 mM PBS pH 7.4, 0.05% Tween, room temperature, 5 min; SAXS: 100 uM bovine SOD1 and dsDNA, buffer not given in material. The note with it: protein: commercial; tags: rhodamine B label; chain copies: 2; blunt.

bovine SOD1, rhodamine B labeled, sequence (P00442 2-152): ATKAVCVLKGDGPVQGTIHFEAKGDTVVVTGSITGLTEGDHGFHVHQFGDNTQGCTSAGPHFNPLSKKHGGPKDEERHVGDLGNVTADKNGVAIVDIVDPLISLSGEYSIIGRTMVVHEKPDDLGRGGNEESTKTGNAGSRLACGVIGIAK
human Cu/Zn superoxide dismutase SOD1, RED-NHS labeled, sequence (P00441 whole entry): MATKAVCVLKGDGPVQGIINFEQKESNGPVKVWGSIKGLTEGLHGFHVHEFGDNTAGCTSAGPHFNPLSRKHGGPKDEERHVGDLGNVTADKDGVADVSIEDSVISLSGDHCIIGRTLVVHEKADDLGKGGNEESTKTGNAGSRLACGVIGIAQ

B1: dsDNA (dsDNA)
DNA 1: ATGGAATGGAAT
DNA 2: ATTCCATTCCAT
For the molecule B1, the equilibrium dissociation constant (Kd) in data set [1] amounted to 155 nM.

B2: FITC-dsDNA (dsDNA)
DNA 1: ATGGAATGGAAT
DNA 2: ATTCCATTCCAT
In data set [2], B2 yielded an equilibrium dissociation constant (Kd) of 105 nM.

One may read the Kd as the concentration at which binding is half-saturated.
